We go through twelve molecules from PMC7486241 (Cell Host & Microbe, 2020).

Like-named read-outs stand apart in the source and are kept apart here.

The target in assay [1] is H7N9 A/Shanghai/02/2013 hemagglutinin (HA), biotinylated recombinant (Influenza A virus A/Shanghai/02/2013 …, UniProt R4NN21, biotin). Kind of assay: BLI. Particulars: both partners purified.
Assay [2] deals with H9N2 A/Hongkong/1073/1999 hemagglutinin (HA), biotinylated recombinant (influenza A virus A/Hongkong/1073/1999 …, biotin). Put plainly: BLI. Particulars: both partners purified.
Assay [3] deals with H3N2 A/Texas/50/2012 hemagglutinin (HA), biotinylated recombinant (influenza A virus A/Texas/50/2012 (H3N2), biotin). Kind of assay: BLI. As to conditions: both partners purified.
The target of assay [4] is T1, recombinant HA of H1N1 A/California/04/2009, biotinylated (Influenza A virus A/California/04/2009 …, UniProt C3W5S1, strain, biotin).
T1 construct: source: plasmid pCMV/R-HA-AviHis, Andrews et al., 2017
Kind of assay: Meso Scale Discovery (MSD) electrochemiluminescence binding assay. As to conditions: both partners purified.

The target in assay [5] is recombinant HA of H7N9 A/Shanghai/02/2013, biotinylated (Influenza A virus A/Shanghai/02/2013 …, UniProt R4NN21, strain, biotin). Described as above. Particulars: both partners purified.
The target in assay [6] is T1, recombinant HA of H1N1 ….
Assay [7] addresses T2, recombinant HA of H5N1 A/Indonesia/05/2005, biotinylated (Influenza A virus A/Indonesia/05/2005 …, UniProt C5MRF2, strain, biotin).
The target in assay [8] is T2, recombinant HA of H5N1 …. Kind of assay: Meso Scale Discovery (MSD) electrochemiluminescence binding assay. Particulars: both partners purified.
For assay [9], the target named is recombinant HA of H1N1 A/New Caledonia/20/1999, biotinylated (Influenza A virus A/New …, UniProt Q6WG00, strain, biotin). The assay is described as above. As to conditions: both partners purified.
Assay [10] concerns the target recombinant HA of H3N2 A/Texas/50/2012, biotinylated (Influenza A virus A/Texas/50/2012 (H3N2), UniProt R4L1D1, strain, biotin). The assay is described as above. As to conditions: both partners purified.
The target in assay [11] is recombinant HA of H9N2 A/Hongkong/1073/1999, biotinylated (Influenza A virus A/Hong Kong/1073/1999 …, UniProt Q9ICY5, strain, biotin). The description is as above. As to conditions: both partners purified.
Assay [12] concerns the target T3, recombinant HA of H3N2 A/Hongkong/1/1968, biotinylated (Influenza A virus A/Hong Kong/1/1968 …, UniProt Q91MA7, strain, biotin).
T3 construct: source: plasmid pCMV/R-HA-AviHis, Andrews et al., 2017
Described as above. As to conditions: both partners purified.

The target in assay [13] is T4, HA ectodomain of A/California/04/2009 (H1N1), cleaved mature HA (HA1/HA2) (influenza A virus A/California/04/2009 …).
T4 construct: copies: 3 + 3
Put plainly: crystal structure. As to conditions: both partners purified.

B1: 58-6E11 Fab (Fab, V domains shown)
VH: QVQLPQSGPGLVKPSQTLSLTCAISGDSVSSNSAVWTWIRQSPSRGLEWLGRTYYRSKWYNDYAVSVESRITINPDTSKNQFSLQLKSVTPEDTAVYFCARSGITIFGVSVMAMDIWGQGTTVIVSS
VL: EIVLTQSPGTLSLSPGERATLSCRASQNVAVSYLAWYQQKPGQPPRLLIYGASSRATGIPGRFTGSGSGTDFTLTINRLEPEDSAVYYCQQYATSPRALTFGGGTKVEIK
B1: the binding result in assay [1], in [2] and in assay [3] was “no binding (tested: 3200 nM (highest Fab concentration))” throughout.

B2: early intermediate of clonotype B, IgG (antibody, V domains shown)
VH: QVQLQQSGPGLVKPSQTLSLTCAISGDSVSSNSAVWTWIRQSPSRGLEWLGRTYYRSKWYNDYAVSVKSRITINPDTSKNQFSLQLKSVTPEDTAVYYCARSGITIFGVIIMAMDIWGQGTTVTVSS
VL: EIVLTQSPGTLSLSPGERATLSCRASQNVAVSYLAWYQQKPGQPPRLLIYGASSRATGIPDRFTGSGSGTDFTLTINRLEPEDSAVYYCQQYGSSPRALTFGGGTKVEIK
Consider B2, for which the binding result in [4] is on record as “binds”.

B3: 54-1G05 VL early intermediate, IgG (54-1G05 VH paired with VL from the early intermediate of clonotype B) (antibody, V domains shown)
VH: QVQLQQSGPRLVKPSQTLSLTCAISGDSVSSSSAVWTWIRQSPSRGLEWLGRTYYRSKWYDDYAVSVQGRITINPDTSKNQISLQLNSVTPDDTAVYYCARSSINIFGVFVMAMDVWGQGTAVTVSS
VL: EIVLTQSPGTLSLSPGERATLSCRASQNVAVSYLAWYQQKPGQPPRLLIYGASSRATGIPDRFTGSGSGTDFTLTINRLEPEDSAVYYCQQYGSSPRALTFGGGTKVEIK
notes: IgG format
For the molecule B3, the binding result in [5] is “binds”.

B4: ClonB UCA Fab (Fab, V domains shown)
VH: QVQLQQSGPGLVKPSQTLSLTCAISGDSVSSNSAVWTWIRQSPSRGLEWLGRTYYRSKWYNDYAVSVKSRITINPDTSKNQFSLQLKSVTPEDTAVYYCARSGITIFGVIIMAMDIWGQGTTVTVSS
VL: EIVLTQSPGTLSLSPGERATLSCRASQNVAVSYLAWYQQKPGQPPRLLIYGASSRATGIPDRFTGSGSGTDFTLTINRLEPEDSAVYYCQQYGSSPRALTFGGGTKVEIK
notes: also called early intermediate of clonotype B; EI (clonotype B)
Consider B4, for which the binding result in assay [2] and in assay [3] was “no binding (tested: 3200 nM (highest Fab concentration))” in each case.

B5: 54-1B01 (antibody, V domains shown)
VH: QVQLQQSGPGVVKPSQSLALTCAISGDSVSNDRVAWIWIRQSPSRGLEWLGRTYYRSKWYNDYANSVRGRMTINPDTSKNQFSLNLDSVTPDDTAVYYCARGMIFGRPLTGWYFDFWGRGTLVTVSS
VL: EIVLTQSPGTLSLSAGERVTLFCRASQHVSSGYLAWYQQKPGQAPRLLIYGATNRATGIPDRFSGSGSGTDFALTISRLEPEDFAVYYCQQFDSSSMYTFGQGTKLEIK
Consider B5, for which the binding result in assay [6] and in assay [7] was “binds” throughout.

B6: early intermediate of clonotype A, IgG (antibody, V domains shown)
VH: QVQLQQSGPGLVKPSQTLSLTCAISGDSVSSNSAAWNWIRQSPSRGLEWLGRTYYRSKWYNDYAVSVKSRITINPDTSKNQFSLQLNSVTPEDTAVYYCARGMIFNWPLGGWSFDLWGRGTLVTVSS
VL: EIVLTQSPGTLSLSPGERATLSCRASQSVSSSYLAWYQQKPGQAPRLLIYGASSRATGIPDRFSGSGSGTDFTLTISRLEPEDFAVYYCQQFDSSSMYTFGQGTKLEIK
On to B6, for which the binding result in assay [4] was “binds”.

B7: 54-1G07 Fab (Fab, V domains shown)
VH: QVQLQQSGPGLVKPSQTLALTCGISGDTVSNNRVAWNWIRQSPSRGLEWLGRTYYRSKWYSDYSKSVTGRMTINPDTSKNQFSLHLDSVTPADTAVYYCARGMIFGWPLTGWYFDLWGRGTLVTVSS
VL: EIVLTQSPGTLSLSPGERVTLLCRASHHVSSGYLAWYQQKPGQAPRLLIYGATNRATGIPDRFSGSGSGTDFALTISRLEPEDFAVYYCQQFDSSSMYTFGQGTKLEIK
For B7, in assay [2], the binding result was “no binding (tested: 3200 nM (highest Fab concentration))”.

B8: 54-1G07 (clonotype A), IgG (antibody, V domains shown)
VH: QVQLQQSGPGLVKPSQTLALTCGISGDTVSNNRVAWNWIRQSPSRGLEWLGRTYYRSKWYSDYSKSVTGRMTINPDTSKNQFSLHLDSVTPADTAVYYCARGMIFGWPLTGWYFDLWGRGTLVTVSS
VL: EIVLTQSPGTLSLSPGERVTLLCRASHHVSSGYLAWYQQKPGQAPRLLIYGATNRATGIPDRFSGSGSGTDFALTISRLEPEDFAVYYCQQFDSSSMYTFGQGTKLEIK
notes: IgG format
As for B8, the binding result in [4] and in assay [8] was “binds” in each case.

B9: 54-1G05 (clonotype B), IgG (antibody, V domains shown)
VH: QVQLQQSGPRLVKPSQTLSLTCAISGDSVSSSSAVWTWIRQSPSRGLEWLGRTYYRSKWYDDYAVSVQGRITINPDTSKNQISLQLNSVTPDDTAVYYCARSSINIFGVFVMAMDVWGQGTAVTVSS
VL: EIVLTQSPGTLSLSPGERVTLSCRASQTVYNSYLAWYQQKPGQAPTLLIYGTSTRATGVPDRFSGSGSGTVFTLTISRLEPEDFAVYFCQQYSTSPRALTFGGGTKVEIK
notes: source: Expi293 cells, transfected, purified from the supernatant (Protein A)
Take B9: the binding result in assay [4], in assay [8], in assay [9], in assay [10], in assay [5] and in [11] was “binds” each time. In addition, the binding result in [12] is reported as “binds”.

B10: 54-4H03 Fab (Fab, V domains shown)
VH: QVQLQQSGPGLVKPSQTLSLTCAISGDSVSSNSVAWNWIRQSPSRGLEWLGRTYFRSKWYTDYAESLKSRMTINPDTSKNEFSLHLKSVTSDDTAVYYCVRGIIFNWPLGGWSFDLWGRGTLVSVSS
VL: EIVLTQSPGTLSLSPGDSATLSCRASQSVASSYLAWYQQKPGQSPRLLIYATINRAADIPDRFSGSGSGTDFALTISRLEPEDFAVYYCQQFDSSSMYTFGQGTKLEIT
B10: in assay [13], the binding result is given as “binds”.

B11: 54-4H03 VH G100cT/S100fY, IgG (54-4H03 light chain) (antibody, V domains shown)
VH: QVQLQQSGPGLVKPSQTLSLTCAISGDSVSSNSVAWNWIRQSPSRGLEWLGRTYFRSKWYTDYAESLKSRMTINPDTSKNEFSLHLKSVTSDDTAVYYCVRGIIFNWPLTGWYFDLWGRGTLVSVSS
VL: EIVLTQSPGTLSLSPGDSATLSCRASQSVASSYLAWYQQKPGQSPRLLIYATINRAADIPDRFSGSGSGTDFALTISRLEPEDFAVYYCQQFDSSSMYTFGQGTKLEIT
Turning to B11, the binding result in assay [8] and in assay [5] was “no binding” each time.

B12: 54-4H03 (clonotype A), IgG (antibody, V domains shown)
VH: QVQLQQSGPGLVKPSQTLSLTCAISGDSVSSNSVAWNWIRQSPSRGLEWLGRTYFRSKWYTDYAESLKSRMTINPDTSKNEFSLHLKSVTSDDTAVYYCVRGIIFNWPLGGWSFDLWGRGTLVSVSS
VL: EIVLTQSPGTLSLSPGDSATLSCRASQSVASSYLAWYQQKPGQSPRLLIYATINRAADIPDRFSGSGSGTDFALTISRLEPEDFAVYYCQQFDSSSMYTFGQGTKLEIT
Regarding B12, the binding result in assay [4] and in assay [5] was “binds” in each case.
